# Measured values reported in patent US20110305749A1, “HIV-1 Envelope Polypeptides for HIV Vaccine” (priority 2008, published 2011).
# Like-named read-outs stand apart in the source and are kept apart here.
# B1: MIP-1α (protein, UniProt P10855 24-92, looked up)
# C-C motif chemokine 3: APYGADTPTACCFSYSRKIPRQFIVDYFETSSLCSQPGVIFLTKRNRQICADSKETWVQEYITDLELNA
# B2: MIP-1β (protein, UniProt P14097 24-92, looked up)
# C-C motif chemokine 4: APMGSDPPTSCCFSYTSRQLHRSFVMDYYETSSLCSKPAVVFLTKRGRQICANPSEPWVTEYMSDLELN
# B3: TCA-3 (protein, UniProt P10146 24-92, looked up)
# C-C motif chemokine 1: KSMLTVSNSCCLNTLKKELPLKFIQCYRKMGSSCPDPPAVVFRLNKGRESCASTNKTWVQNHLKKVNPC
# B4: CD80 (protein, UniProt Q00609 38-306, looked up)
# T-lymphocyte activation …: VDEQLSKSVKDKVLLPCRYNSPHEDESEDRIYWQKHDKVVLSVIAGKLKVWPEYKNRTLYDNTTYSLIILGLVLSDRGTYSCVVQKKERGTYEVKHLALVKLSIKADFSTPNITESGNPSADTKRITCFASGGFPKPRFSWLENGRELPGINTTISQDPESELYTISSQLDFNTTRNHTIKCLIKYGDAHVSEDFTWEKPPEDPPDSKNTLVLFGAGFGAVITVVVIVVIIKCFCKHRSCFRRNEASRETNNSLTFGPEEALAEQTVFL
# B5: CD86 (protein, UniProt P42082 24-309, looked up)
# T-lymphocyte activation …: VSVETQAYFNGTAYLPCPFTKAQNISLSELVVFWQDQQKLVLYEHYLGTEKLDSVNAKYLGRTSFDRNNWTLRLHNVQIKDMGSYDCFIQKKPPTGSIILQQTLTELSVIANFSEPEIKLAQNVTGNSGINLTCTSKQGHPKPKKMYFLITNSTNEYGDNMQISQDNVTELFSISNSLSLSFPDGVWHMTVVCVLETESMKISSKPLNFTQEFPSPQTYWKEITASVTVALLLVMLLIIVCHKKPNQPSRPSNTASKLERDSNADRETINLKELEPQIASAKPNAE
# B6: CD40L (protein, UniProt P27548 112-260, looked up)
# CD40 ligand, soluble form: MQRGDEDPQIAAHVVSEANSNAASVLQWAKKGYYTMKSNLVMLENGKQLTVKREGLYYVYTQVTFCSNREPSSQRPFIVGLWLKPSSGSERILLKAANTHSSSQLCEQQSVHLGGVFELQAGASVFVNVTEASQVIHRVGFSSFGLLKL
# Columns and labels:
# [1] = system: Human Peripheral Blood Mononuclear Cells (PBMC); assay: Immunosuppression of selected peptides: Con A stimulated lymphocyte proliferation (EdU incorporation); type: cell-based; conditions: Con A (5 ug/mL); for inhibition profile of proliferation at various peptide concentrations: dose-dependence (FIG. 11); for inhibition of lymphocyte proliferation: peptide concentration of 50 uM, 72 hrs, relative to Con A stimulated cells without peptide (FIG. 10)
# From the text: The peptides are dimerized via the C-terminal Cysteines and added at the concentrations indicated below.
# Human PBMC = assay: Mixed leukocyte reaction: PBMC stimulated by Jurkat cells expressing HIV envelope variants; conditions: PBMC with Mitomycin C arrested Jurkat stimulator cells expressing the envelope, 1:1, 96 hrs (FIG. 12)
# Description: The experiment utilizes Human PBMC prepared fresh from healthy donors. These are stimulated by adding a human T cell line (Jurkat) at a 1:1 ratio. The jurkat cells have been irreversible arrested by incubating them with 50 ug/mL Mitomycin C for 1 hour prior to PBMC stimulation. Cultures are maintained and lymphocyte proliferation is measured 96 hrs later by EdU incorporation and Click-iT labelling with Oregon Green (Invitrogen, Denmark) as recommended by the manufacturer. The degree of activated lymphocytes is proportional to the flourescence detection.
# IFN-gamma = assay: Cytokine modulation: IFN-gamma in supernatant of ConA stimulated PBMC (ELISA); conditions: 50 uM peptide, Con A stimulation of PBMC, 72 hrs, ELISA (FIG. 14)
# Description: (§1) Donor PBMC's were maintained at 10^5 cells/well in a 96-well. […] After 72 hrs, lymphocyte proliferation was measured and supernatants analysed by ELISA for levels of the proinflammatory cytokines, IFN-gamma (FIG. 14 grey bar) and TNF-alpha (FIG. 14 black bar).
# TNF-alpha = assay: Cytokine modulation: TNF-alpha in supernatant of ConA stimulated PBMC (ELISA); conditions: 50 uM peptide, Con A stimulation of PBMC, 72 hrs, ELISA (FIG. 14)
# Description: as §1
# BAB/No Ag = conditions: R, i.m.; cited from earlier work
# HIV-1 [2] = conditions: M, cited from earlier work
# HSV-2 = conditions: M, i.m.; cited from earlier work
# Influenza = conditions: M, i.m.; cited from earlier work
# [3] = HSV-3; M, i.m./i.d.; cited from earlier work
# HIV-1 [4] = conditions: C, i.m.; cited from earlier work
# β-gal = conditions: M, i.m.; cited from earlier work
molecule,measurement,setting,value
LQARILAVETLIQNQQLLNLWGC [HIV M/O chimera],inhibition profile of proliferation at various peptide concentrations,[1],less steep
same,inhibition of lymphocyte proliferation,[1],22%
same,lymphocyte proliferation (activation of PBMC),Human PBMC,decrease is relieved
LQARVLAVERYLKDQQLLGIWGC [CS-3],inhibition of lymphocyte proliferation,[1],82%
same,IFN-γ secretion,IFN-gamma,significantly reduces
same,TNF-α secretion,TNF-alpha,significantly reduces
LQARVLAVERYLKDQQLLRIWGC [HIV G19R],inhibition profile of proliferation at various peptide concentrations,[1],less steep
same,inhibition of lymphocyte proliferation,[1],15%
"LQNRRGLDLLFLKEGGLC (HIV) [CKS-17, reference compound]",inhibition of lymphocyte proliferation,[1],93%
MCP-1,Effects: Ab/IgG,BAB/No Ag,↑^e
same,Effects: Protection,BAB/No Ag,↑
RANTES,Effects: Ab/IgG,BAB/No Ag,↑^e
same,Effects: Protection,BAB/No Ag,=
same,Effects: CTL,HIV-1 [2]; i.m.,↑
B1,Effects: Ab/IgG,BAB/No Ag,↑^e
same,Effects: Protection,BAB/No Ag,↑
same,Effects: Ab/IgG,HIV-1 [2]; i.m./i.n.,↑
same,Effects: CTL,HIV-1 [2]; i.m./i.n.,↑
same,Effects: DTH,HIV-1 [2]; i.m./i.n.,↑
same,Effects: IgG1/IgG2a,HIV-1 [2]; i.m./i.n.,↓
same,Effects: CTL,HIV-1 [2]; i.m.,↑
same,Effects: IgG1/IgG2a,HIV-1 [2]; i.m.,↑
B2,Effects: Ab/IgG,BAB/No Ag,↑^e
same,Effects: Protection,BAB/No Ag,↓
B3,Effects: Ab/IgG,HIV-1 [2]; i.m.,↓
same,Effects: CTL,HIV-1 [2]; i.m.,↑
same,Effects: DTH,HIV-1 [2]; i.m.,↑
same,Effects: IgG1/IgG2a,HIV-1 [2]; i.m.,↓
B4,Effects: Ab/IgG,HIV-1 [2]; i.m.,=
same,Effects: CTL,HIV-1 [2]; i.m.,=
same,Effects: DTH,HIV-1 [2]; i.m.,=
same,Effects: Ab/IgG,HSV-2,=
same,Effects: DTH,HSV-2,= and ↑
same,Effects: IgG1/IgG2a,HSV-2,=
same,Effects: Protection,HSV-2,= and ↑
same,Effects: CTL,Influenza,=
B5,Effects: Ab/IgG,HIV-1 [2]; i.m.,=
same,Effects: CTL,HIV-1 [2]; i.m.,↑
same,Effects: DTH,HIV-1 [2]; i.m.,↑
same,Effects: IgG1/IgG2a,HIV-1 [2]; i.m.,=
same,Effects: CTL,Influenza,↑
same,Effects: Ab/IgG,[3],=
same,Effects: DTH,[3],=
same,Effects: IgG1/IgG2a,[3],=
same,Effects: Protection,[3],=
same,Effects: CTL,HIV-1 [4],↑
B6,Effects: Ab/IgG,β-gal,↑
same,Effects: CTL,β-gal,↑
same,Effects: IgG1/IgG2a,β-gal,↓
same,Effects: Protection,β-gal,↑
